Data on ten molecules can be found in US20170369590A1 (published 2017).

Experiment [1] deals with T1, human epidermal growth factor receptor 2 (HER2), membrane-bound on cells (human, UniProt P04626 23-1255). Briefly: FACS binding; A431 cells.
Experiment [2] deals with T1, human epidermal growth factor receptor …. Description: FACS binding; AU565 cells.

B1: HuMab 132 (antibody, V domains shown)
VH: QVQLVQSGAEVKKPGASVKVSCKASGYTFTSYGISWVRQAPGQGLEWMGWISAYNGNSNYVQKFQGRVTMTTDTTTSTAYMELRSLTSDDTAVYYCAREYSYDSGTYFYYGMDVWGQGTTVTVSS
VL: EIVLTQSPATLSLSPGERATLSCRASQSVSSYLAWYQQKPGQAPRLLIYDASNRATGIPARFSGSGSGTDFTLTISSLEPEDFAVYYCQQRSNWPMYTFGQGTKLEIK
Turning to B1, the results for the EC50 in experiment [1] and in experiment [2] were 0.068 µg/mL and 0.911 µg/mL, respectively.

B2: HuMab 129 (antibody, V domains shown)
VH: QVQLVESGGGVVQPGRSLRLSCAASGFTFSTFAIHWVRQAPGKGLEWVAVISYDGGHKFYADSVKGRFTISRDNSKNTLYLQMNSLRAEDTAMYYCARGLGVWGAFDYWGQGTLVTVSS
VL: EIVLTQSPATLSLSPGERATLSCRASQSVSSYLAWYQQKPGQAPRLLIYDASNRATGIPARFSGSGSGTDFTLTISSLEPEDFAVYYCQQRSNWWTFGQGTKVEIK
Regarding B2, the EC50 was found to be 0.316 µg/mL in experiment [1] and 0.578 µg/mL in experiment [2].

B3: HuMab 169 (antibody, V domains shown)
VH: QVQLVQSGAEVKKPGASVKVSCKASGYTFTNYGISWVRQAPGQGLEWMGWLSAYSGNTIYAQKLQGRVTMTTDTSTTTAYMELRSLRSDDTAVYYCARDRIVVRPDYFDYWGQGTLVTVSS
VL: EIVLTQSPATLSLSPGERATLSCRASQSVSSYLAWYQQKPGQAPRLLIYDASNRATGIPARFSGSGSGTDFTLTISSLEPEDFAVYYCQQRSNWPRTFGQGTKVEIK
With B3, the values for the EC50 in experiment [1] and in experiment [2] were 0.415 µg/mL and 0.908 µg/mL, respectively.

B4: HuMab 084 (antibody, V domains shown)
VH: QVQLVQSGAEVKKPGSSVKVSCKASGGTFRTYAINWVRQAPGQGLEWMGRINTVLGIVNHAQKFQGRVTITADKSTNTAYMELNSLRSEDTAVYYCAREKGVDYYYGIEVWGQGTTVTVSS
VL: DIQMTQSPSSVSASVGDRVTITCRASQGISSWLAWYQHKPGKAPKLLIYVASTLQSGVPSRFSGSGSGTDFTLTISSLQPEDFATYYCQQANSFPLTFGGGTKVEIK
For the molecule B4, the results for the EC50 in experiment [1] and in experiment [2] were 0.498 µg/mL and 0.491 µg/mL, respectively.

B5: HuMab 098 (antibody, V domains shown)
VH: EVQLLESGGGLVQPGGSLRLSCAASGFTFSNYGMSWVRQAPGKGLEWVSAISGSAYSTYYADSVKGRFTISRDNSKNTLWLQMNSLRAEDTAVYYCAKAHYHGSGSYYTLFDYWGQGTLVTVSS
VL: DIQMTQSPSSLSASVGDRVTITCRASQGISSWLAWYQQKPEKAPKSLIYAASSLQSGVPSRFSGSGSGTDFTLTISSLQPEDFATYYCQQYNSYPYTFGQGTKLEIK
For B5, the figures for the EC50 in experiment [1] and in experiment [2] were 0.101 µg/mL and 0.336 µg/mL, respectively.

B6: HuMab 050 (antibody, V domains shown)
VH: EVQLLESGGGLVQPGGSLRLSCAASGFTFSSYAMNWVRQAPGKGLEWVSAISGRGGTTYYADSVKGRFTISRDNSKNTLYLQMSSLRAEDTAVYYCAKARANWDYFDYWGQGTLVTVSS
VL: DIQMTQSPSSVSASVGDRVTITCRASQGISSWLAWYQHKPGKAPKLLIYAASILQSGVPSRFSGSGSGTDFTLTISSLQPEDFATYYCQQANSFPITFGQGTRLEIK
As to B6, the EC50 in experiment [1] was 1.14 µg/mL; in experiment [2], 0.722 µg/mL.

B7: HuMab 153 (antibody, V domains shown)
VH: QVQLVESGGGVVQPGRSLRLSCAASGFTFSDYVIHWVRQAPGKGLEWVTVISYDGSNKYYADSVKGRFTISRDNSKNTLYLQMNSLSAEDTAMYYCARGGITGTTGVFDYWGQGTLVTVSS
VL: DIQMTQSPSSLSASVGDRVTITCRASQGISSWLAWYQQKPEKAPKSLIYDASSLQSGVPSRFSGSGYGTDFSLTISSLQPEDFAIYYCQQYKSYPITFGQGTRLEIK
As for B7, the EC50 in experiment [1] is 0.244 µg/mL; in experiment [2], 0.626 µg/mL.

B8: HuMab 159 (antibody, V domains shown)
VH: EVQLVQSGAEVKKPGESLKISCKGSGYNFTSYWIGWVRQMPGKGLEWMGIIYPGDSDTRYSPSFQGQVTISADKSISTAYLQWSSLKASDTAMYYCARWGTYYDILTGYFNWFDPWGQGTLVTVSS
VL: DIQMTQSPSSLSASVGDRVTITCRASQGISSWLAWYQQKPEKAPKSLIYAASSLQSGVPSRFSGSGSGTDFTLTISSLQPEDFATYYCQQYYIYPWTFGQGTKVEIK
As to B8, the figures for the EC50 in experiment [1] and in experiment [2] were 0.855 µg/mL and 1.3 µg/mL, respectively.

B9: HuMab 025 (antibody, V domains shown)
VH: QVQLQQWGAGLLKPSETLSLTCAVYGGSFSDYYWNWIRQPPGKGLEWIGEIHHSGSTNYNPSLKSRVTISVDTSKNQFSLKLSSVTAADTAVYYCARGYYDSGVYYFDYWAQGTLVTVSS
VL: DIQMTQSPSSLSASVGDRVTITCRASQGISRWLAWYQQKPEKAPKSLIYAASSLRSGVPSRFSGSGSGTDFTLTISSLQPEDFATYYCQQYNSYPITFGQGTRLEIK
Take B9: the EC50 in experiment [1] came out at 0.128 µg/mL; in experiment [2], 0.58 µg/mL.

B10: HuMab 127 (antibody, V domains shown)
VH: EVQLVQSGAEVKKPGESLTISCKGSGYSFSIYWIGWVRQMPGKGLEWMGIIFPGDSDIRYSPSFQGQVTISADKSISTAYLQWSSLKASDTAMYYCARQPGDWSPRHWYFDLWGRGTLVTVSS
VL: VIWMTQSPSLLSASTGDRVTISCRMSQGISSYLAWYQQKPGKAPELLIYAASTLQSGVPSRFSGSGSGTDFTLTISYLQSEDFATYYCQQYYSFPLTFGGGTKVEIK
Consider B10, for which the values for the EC50 in experiment [1] and in experiment [2] were 0.27 µg/mL and 2.29 µg/mL, respectively.
